T1: recombinant human FGFR1/Fc chimera (Sino Biological 10616-H03H) (human, UniProt P11362 22-376)
T1 chain: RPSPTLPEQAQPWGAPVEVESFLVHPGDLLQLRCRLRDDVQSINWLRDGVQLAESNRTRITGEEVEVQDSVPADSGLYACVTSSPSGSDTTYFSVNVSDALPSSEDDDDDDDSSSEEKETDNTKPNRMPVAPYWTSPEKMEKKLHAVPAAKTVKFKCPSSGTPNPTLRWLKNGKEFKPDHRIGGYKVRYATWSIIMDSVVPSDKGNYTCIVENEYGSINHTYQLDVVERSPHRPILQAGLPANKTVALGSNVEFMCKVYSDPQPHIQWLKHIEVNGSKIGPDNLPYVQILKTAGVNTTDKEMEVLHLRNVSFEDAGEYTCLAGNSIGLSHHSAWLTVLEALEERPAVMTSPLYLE


Columns and labels:
[1] = target: T1, recombinant human FGFR1/Fc chimera …; experiment: SPR
[2] = target: recombinant human FGFR2/Fc chimera (Sino Biological 10824-H03H) (human, UniProt P21802 22-377); experiment: SPR
Chain of recombinant human FGFR2/Fc chimera (Sino Biological 10824-H03H) (P21802 22-377): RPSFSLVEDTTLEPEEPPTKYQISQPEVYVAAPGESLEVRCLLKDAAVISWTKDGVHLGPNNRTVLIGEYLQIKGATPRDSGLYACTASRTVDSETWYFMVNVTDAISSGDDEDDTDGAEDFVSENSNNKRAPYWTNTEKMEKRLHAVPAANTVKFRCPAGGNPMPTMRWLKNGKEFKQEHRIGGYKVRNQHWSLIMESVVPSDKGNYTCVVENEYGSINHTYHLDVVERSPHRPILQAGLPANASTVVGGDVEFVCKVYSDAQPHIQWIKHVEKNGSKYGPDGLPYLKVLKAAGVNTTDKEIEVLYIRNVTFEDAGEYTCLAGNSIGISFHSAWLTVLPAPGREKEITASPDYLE

Kd [1]	Kd [2]	Binder
39.2 nM	31.5 nM	recombinant FGF8a (R&D Systems 4745-F8-050) (ligand) QHVREQSLVTDQLSRRLIRTYQLYSRTSGKHVQVLANKRINAMAEDGDPFAKLIVETDTFGSRVRVRGAETGLYICMNKKGKLIAKSNGKGKDCVFTEIVLENNYTALQNAKYEGWYMAFTRKGRPRKGSKTRQHQREVHFMKRLPRGHHTTEQSLRFEFLNYPPFTRSLRGSQRTWAPEPR
3.61 nM	6.94 nM	recombinant FGF4 (Peprotech AF-100-31) (ligand) APTAPNGTLEAELERRWESLVALSLARLPVAAQPKEAAVQSGAGDYLLGIKRLRRLYCNVGIGFHLQALPDGRIGGAHADTRDSLLELSPVERGVVSIFGVASRFFVAMSSKGKLYGSPFFTDECTFKEILLPNNYNAYESYKYPGMFIALSKNGKTKKGNRVSPTMKVTHFLPRL

— article PMC5467231 (2017)
